Holding throughout (format): in vivo, mouse
The test system of test [1] is ob/ob mice. The test is described as follows: Acute effects of FGF-1 on blood glucose: dose response and time courses after s.c. and i.v. administration (Example 6). Particulars: for duration of blood glucose reduction after intravenous administration: 0.2 mg/kg i.v. How it is done: FIG. 8. Dose response effect of FGF-1 (s.c., mg/kg) on blood glucose levels of ob/ob mice.
FIG. 9. Effect of FGF-1 (s.c., 0.5 mg/kg) on blood glucose levels of ob/ob mice.
FIG. 10. Effect of intravenous FGF1 (0.2 mg/kg) on blood glucose levels of ob/ob mice.
In order to establish the acute effects of FGF-1 on blood glucose levels, dose response curves (FIG. 8) and time courses after subcutaneous (FIG. 9) and intravenous (FIG. 10) administration were performed.

Test [2] relates to ob/ob mice. The test is described as follows: Chronic FGF-1 treatment for 36 days: glucose, food intake, body composition, serum lipids, liver (Examples 7-10). On the procedure: Blood was collected by tail bleeding either in the ad libitum fed state or following overnight fasting. Free fatty acids (Wako), triglycerides (Thermo), and cholesterol (Thermo) were measured using enzymatic colorimetric methods following the manufacturer's instructions. Serum insulin levels were measured using an Ultra Sensitive Insulin ELISA kit (Crystal Chem). Serum adiponectin levels were measured by ELISA (Millipore). Plasma adipokine levels were measured using a Milliplex™ MAP kit (Millipore).
Tissues were fixed in 4% phosphate-buffered formalin, embedded in paraffin, sectioned at 4 μm, and stained with hematoxylin and eosin according to standard procedures. For immunohistochemistry, tissues were deparaffinized in xylene and rehydrated. Slides were incubated with 5% normal donkey serum in PBS (+0.2% Triton-X100 and 1% BSA) for 30 min, and subsequently sections were incubated overnight with a 1:200 dilution of primary antibodies at 4° C. and using Alexa Fluor 488 or 595 as secondary antibodies for 2 hrs at RT.
In Example 5, ob/ob male mice (8 wk old) were randomized into three groups and treated with daily subcutaneous (s.c.) injections of recombinant mouse FGF-1 (0.5 mg/kg in PBS), oral rosiglitazone (TZD, 5 mg/kg in 0.5% carboxymethyl cellulose), or vehicle. Blood glucose levels were measure in fed animals one hour after treatment. Total body composition analysis was performed using an EchoMRI-100™ (Echo Medical Systems, LLC).
To investigate the metabolic effects of chronic FGF-1 treatment in ob/ob mice, eight weeks old male ob/ob mice were treated with vehicle or recombinant mouse FGF-1 (0.5 mg/kg/3 days, s.c.) for a period of 36 days. During this time, glucose levels, food intake, and body composition were monitored.

Test [3] has as its system ob/ob mice. The test is described as follows: Glucose tolerance test after four weeks of FGF-1 administration. Particulars: after four weeks of 0.5 mg/kg/3 days s.c. How it is done:
Glucose tolerance tests (GTT) were conducted after overnight fasting. Mice were injected intraperitoneally (i.p.) with 1 g of glucose per/kg body weight, and blood glucose was monitored at 0, 15, 30, 60, 90, and 120 min using a OneTouch Ultra glucometer (Lifescan Inc). Insulin tolerance tests (ITT) were conducted after overnight fasting. Mice were injected i.p. with 0.5 U of insulin/kg body weight (Humulin R; Eli Lilly), and blood glucose was monitored at 0, 15, 30, 60, 90, and 120 min using a OneTouch Ultra glucometer (Lifescan Inc). Real-time metabolic analyses were conducted in an undisturbed room under 12 h/12 h light/dark cycles using a Comprehensive Lab Animal Monitoring System (Columbus Instruments).
These tests were carried out as described above.

Test [4] deals with ob/ob diabetic mice. The test is described as follows: Delivery method (s.c., i.p., i.v.) and FGF-1 blood glucose effects (Example 11). How it is done: FIG. 22. Assessment of delivery method on FGF-1 blood glucose effects.
FIG. 23. Assessment of delivery method on duration of FGF-1 activity. Single subcutaneous (sc) or intravenous (iv) injection of FGF-1 (0.5 mg/kg) in ob/ob mice.
To determine if the effects of FGF-1 depend on the route of administration, we tested blood glucose levels of ob/ob mice in response to 0.5 mg/kg body weight FGF-1 delivered s.c., i.p. and i.v. PBS injections were used as controls. […] We next compared i.v. and s.c. injections for duration of the glucose normalizing effect.

Test [5] deals with db/db leptin receptor mutant diabetic mice. The test is described as follows: Single s.c. FGF-1 injection, blood glucose in db/db mice. Particulars: single s.c. injection 0.5 mg/kg. From the text:
FIG. 24. FGF-1 effects in db/db mice. […] The db/db model is considered to represent a […] diabetes model than ob/ob.
(§1) The ob/ob model is considered to represent a very severe diabetic disease. In order to investigate the effect of FGF-1 on less severe diabetic/metabolic disorder models, we tested blood glucose levels in db/db mice and diet induced obese mice.

The subject of test [6] is diet-induced obesity mice (C57BL/6). The test is described as follows: Single s.c. FGF-1 injection, blood glucose in DIO mice. Particulars: single s.c. injection 0.5 mg/kg.
Description: FIG. 25. FGF1 effects in DIO mice.
as §1

Test [7] has as its system ob/ob mice. The test is described as follows: Single s.c. injection of human FGF1 or other FGFs, blood glucose in ob/ob mice (Examples 13, 14). Particulars: 0.5 mg/kg s.c. On the procedure:
FIG. 26. Human recombinant FGF-1 is effective in mice.
FIG. 27. Comparison of FGF1, FGF2, FGF9, and FGF10 effects. Single subcutaneous injection of FGFs (0.5 mg/kg) in ob/ob mice.
As human recombinant FGF-1 is already being used in the clinic, the present methods of using it to treat metabolic disorders offer a straightforward regulatory path to treatment.
As explained above, the FGF family of factors bind to members of the FGFR family of receptors with different specificities. FGF-1 binds preferentially to FGFR1 and FGFR4, and can be internalized into a cell expressing these receptors. To determine if other FGF proteins have similar metabolic effects as FGF-1, we tested blood glucose in ob/ob mice treated with FGF-2, FGF-9, and FGF-10 (0.5 mg/kg s.c.). This combination of FGF proteins binds to the spectrum of FGFRs.

The mark [8] stands for this setting: after the 36 day treatment period.

The text below walks through data of patent US10293027B2, “Methods for treating metabolic disorders using FGF” (Salk Institute for Biological Studies, priority 2010, dated 2019).

Entries after “also recorded” stand apart in the source; their conditions may differ.

B1: FGF-1: recombinant mouse FGF-1 (acidic fibroblast growth factor), a secreted protein that binds heparin and FGF receptors (protein, UniProt P61148 16-155, looked up)
Fibroblast growth factor 1: FNLPLGNYKKPKLLYCSNGGHFLRILPDGTVDGTRDRSDQHIQLQLSAESAGEVYIKGTETGQYLAMDTEGLLYGSQTPNEECLFLERLEENHYNTYTSKKHAEKNWFVGLKKNGSCKRGPRTHYGQKAILFLPLPVSSD
With B1, in test [1] (ob/ob mice), the “duration of blood glucose reduction after intravenous administration” value was “significantly reduced blood glucose for at least one week; also recorded: much longer lasting (at least one week)” and the “dose dependence of glucose reduction” value is given as “dramatic dose-dependent reduction of glucose levels”. In test [1] (ob/ob mice, listed as FGF1), the “duration of blood glucose reduction after intravenous administration” value is “last up to one week”. Also, in test [1] (s.c., blood glucose of ob/ob mice, dose response), the “EC50 of glucose lowering effect” value amounted to 0.25 mg/kg. Also, in test [1] (s.c., ob/ob mice), the “dose at which maximum glucose lowering effects are reached” value is listed as 0.5 mg/kg and the “onset of effect of subcutaneous dosing” value was “effective within a matter of hours”. Moreover, the “blood glucose under chronic treatment” value in test [2] (0.5 mg/kg every third day s.c., 36 days) was “glucose levels are normalized by the first time point tested (day 2) and remain stable for the remainder of the test period; also recorded: completely normalized blood glucose”. In addition, in test [2] (0.5 mg/kg/3 days s.c.), the “body weight / weight gain” value is reported as “remains lower than in untreated ob/ob mice; also recorded: reduced weight gain during the first week”; the food intake result is “initially results in reduced food intake; also recorded: reduced food intake during the first 1-2 weeks of chronic administration, but after two weeks food intake returned to normal”; the percent lean mass result is recorded as “significantly higher than in untreated mice; also recorded: increased lean mass as compared with control mice”; the “total percent body fat” value is “reduced percentage body fat; also recorded: reduced increase in percent body fat”. Moreover, in test [2] (setting [8]), the hepatic glycogen entry is listed as “much higher; also recorded: increased levels of hepatic glycogen”; the “hepatic steatosis (H&E staining of liver)” value is “much less steatosis, and little if any inflammation; also recorded: Steatosis is dramatically reduced compared to control”. Moreover, in test [3], the “glucose tolerance (GTT)” value is “cleared glucose more effectively than untreated controls; also recorded: enhances glucose tolerance”. In test [4] (0.5 mg/kg), the “acute blood glucose effect by s.c., i.p. and i.v. delivery” value is “about the same for all three injection methods”. Moreover, the “time of stable glucose levels after intravenous administration” value in test [4] (0.5 mg/kg i.v., duration of the test) is recorded as “at least 60 hours”. Further, the “duration of glucose normalizing effect, iv compared to sc” value in test [4] (single injection 0.5 mg/kg) was “persist longer when administered iv as compared to sc”. Further, the “blood glucose in db/db mice” value in test [5] is listed as “effective for reducing blood glucose levels in both systems; also recorded: normalizes blood glucose”. In addition, the “blood glucose in diet-induced obesity mice” value in test [6] (0.5 mg/kg) was “effective for reducing blood glucose levels in both systems”. Further, the “blood glucose in diet-induced obesity mice” value in test [6] (listed as FGF1, 0.5 mg/kg) is on record as “normalizes blood glucose”. The “blood glucose in ob/ob mice after a single s.c. injection” value in test [7] is listed as “Only FGF1 has glucose normalizing effects”.
